We go through 10 compounds from patent US20230241243A1, “CARRIER PARTICLE-DRUG CONJUGATES, SELF-IMMOLATIVE LINKERS, AND USES THEREOF” (priority 2020, published 2023).

The nature of the first series: Drug-release assay of nanoparticle-conjugated linker-payloads under cleavage conditions (Cat-B, redox-responsive or pH-sensitive cleaving study), RP-HPLC. As to conditions: linker-payload conjugated to DBCO-functionalized silica nanoparticle, 37° C., 24 hours. In kind it is in vitro ADME. How it is done:
To assess the drug releasing profile of exemplary linker-drug conjugates, the linker-drug conjugates were each conjugated to a DBCO-functionalized ultrasmall silica nanoparticle via a click chemistry reaction between the azide groups on the linker-drug conjugate precursors and the dibenzocyclooctyne (DBCO) groups of the nanoparticles. The resulting drug-nanoparticle-conjugates were then incubated under the desired releasing conditions for release kinetics tests.
The amount of released drugs vs non-released drugs was measured using reverse phase HPLC by analyzing the area under curve (AUC) (FIG. 10A and FIG. 10B).
General Method: A Waters Xbridge Peptide BEH C18 column with 4.6 mm×50 mm dimensions, a particle size of 5 μm, and a pore size of 300 A was used (part number 186003622). Acetonitrile (VWR HiPerSolv Chromanorm, UHPLC Grade) was used as received without further preparation, […] trifluoroacetic acid in deionized water was prepared by adding 1 mL of trifluoroacetic acid (HPLC grade, Millipore-Sigma) into 999 mL 18.2 MΩ·cm deionized water that was generated using an IQ7000 Millipore deionized water system and passed through a 0.2 μm filter before use. The seal wash used for the system was composed of 90% 18.2 MΩ·cm deionized water and 10% methanol (HPLC grade, VWR). The injection needle was washed using a mixture of 25 vol % 18.2 MΩ·cm deionized water, 25 vol % acetonitrile, 25 vol % methanol, and 25 vol % 2-propanol. Samples were prepared in a concentration range of 0.25 to 2 μM and the injection volume ranges from 60 μL to 10 μL, respectively. Higher sample concentration can be used if detector signal is low. Vials used for all injections are fresh Waters Total Recovery vials with screw caps that have pre-slit PTFE septa (part number 186000385C).
Method for Protease-cleavable and Redox-responsive Linkers: Before any sample injections were started, the PDA lamp was turned on and allowed to warm up for at least 30 minutes. The system and column were equilibrated with 95% 0.01% TFA in deionized water, 5% acetonitrile for at least 10 minutes at a flow rate of 1.0 mL/min after the PDA lamp had warmed up. Two blank injections, with injection volumes of 10 μL containing only 18.2 MΩ·cm deionized water, were performed before the injection of any samples for analysis. The gradient used to elute protease-cleavable and redox-sensitive linkers conjugated to hybrid silica nanoparticles, and their components began at 95% 0.01% TFA in deionized water and 5% acetonitrile and linearly changed to 15% 0.01% TFA in deionized water, 85% acetonitrile over 8 minutes. Acetonitrile composition was increased to 95% over an additional minute and held at 95% for an additional 2 minutes to ensure that any strongly retained compounds are eluted. The composition of the solvent was then changed back to the starting composition of the gradient over an additional minute and allowed to equilibrate for 3 minutes before another injection began. Between sample injections a blank injection was run to ensure that no carryover occurred.
Method for pH-sensitive Linkers: Before any sample injections were started, the PDA lamp was turned on and allowed to warm up for at least 30 minutes. A gradient of pure deionized water and acetonitrile was used, all other consumables including column and vials were the same as for the method to purify Cat-B sensitive and redox-responsive linkers elaborated on above. Briefly the gradient composition began at 95% deionized water and 5% acetonitrile at a flow rate of 1.0 mL/min (not changed throughout the method). The composition was changed from this starting composition to 15% deionized water and 85% acetonitrile over a 12-minute period, during which the retained drug-linkers, released drug, free drug linker, and any other impurities eluted. At the 12-minute mark the composition was rapidly changed to 5% deionized water and 95% acetonitrile over the course of one minute. […]
As for `CCc1c2c(nc3ccc(OCCCNC(=O)OCc4ccc(NC(=O)[C@H](CCCCN)NC(=O)[C@H](Cc5c[nH]c6ccccc56)NC(=O)CCOCCOCCOCCOCCOCCOCCOCCOCCOCCN=[N+]=[N-])cc4)cc13)-c1cc3c(c(=O)n1C2)COC(=O)[C@]3(O)CC` [Example 32, 4-((32S,35S)-32-((1H-indol-3-yl)methyl)-35-(4-aminobutyl)-1-azido-30,33-dioxo-3,6,9,12,15,18,21,24,27-nonaoxa-31,34-diazahexatriacontan-36-amido)benzyl (3-(((S)-4,11-diethyl-4-hydroxy-3,14-dioxo-3,4,12,14-tetrahydro-1H-pyrano[3′,4′:6,7]indolizino[1,2-b]quinolin-9-yl)oxy)propyl)carbamate], the “% of Payload Release in 24 Hours Under Cleavage Conditions” value is “+ (‘+’ indicates 5-25% release)”.

Consider `CC[C@@]1(O)C(=O)OCc2c1cc1n(c2=O)Cc2c-1nc1cc(F)c(C)c3c1c2[C@@H](NC(=O)OCc1ccc(NC(=O)[C@H](CCCNC(N)=O)NC(=O)[C@@H](NC(=O)CCOCCOCCOCCOCCOCCN=[N+]=[N-])C(C)C)cc1)CC3` [Example 9, 4-((20S,23S)-1-azido-20-isopropyl-18,21-dioxo-23-(3-ureidopropyl)-3,6,9,12,15-pentaoxa-19,22-diazatetracosan-24-amido)benzyl ((1S,9S)-9-ethyl-5-fluoro-9-hydroxy-4-methyl-10,13-dioxo-2,3,9,10,13,15-hexahydro-1H,12H-benzo[de]pyrano[3′,4′:6,7]indolizino[1,2-b]quinolin-1-yl)carbamate], for which the “% of Payload Release in 24 Hours Under Cleavage Conditions” value is on record as “++++ (‘++++’ indicates 76-100% release)”.

On to `CC[C@@]1(O)C(=O)OCc2c1cc1n(c2=O)Cc2c-1nc1cc(F)c(C)c3c1c2[C@@H](NC(=O)OCc1ccc(NC(=O)[C@H](CCCNC(N)=O)NC(=O)[C@@H](NC(=O)CCCCCCN=[N+]=[N-])C(C)C)cc1)CC3` [Example 30, 4-((S)-2-((S)-2-(7-Azidoheptanamido)-3-methylbutanamido)-5-ureidopentanamido)benzyl ((1S,9S)-9-ethyl-5-fluoro-9-hydroxy-4-methyl-10,13-dioxo-2,3,9,10,13,15-hexahydro-1H,12H-benzo[de]pyrano[3′,4′:6,7]indolizino[1,2-b]quinolin-1-yl)carbamate], for which the “% of Payload Release in 24 Hours Under Cleavage Conditions” value was “++ (‘++’ indicates 26-50% release)”.

With `CCc1c2c(nc3ccc(OCc4c(F)cc(NC(=O)[C@H](CCCNC(N)=O)NC(=O)[C@@H](NC(=O)CCOCCOCCOCCOCCOCCOCCOCCOCCOCCOCCOCCN=[N+]=[N-])C(C)C)cc4F)cc13)-c1cc3c(c(=O)n1C2)COC(=O)[C@]3(O)CC` [Example 22, 1-azido-N-((S)-1-(((S)-1-((4-((((S)-4,11-diethyl-4-hydroxy-3,14-dioxo-3,4,12,14-tetrahydro-1H-pyrano[3′,4′:6,7]indolizino[1,2-b]quinolin-9-yl)oxy)methyl)-3,5-difluorophenyl)amino)-1-oxo-5-ureidopentan-2-yl)amino)-3-methyl-1-oxobutan-2-yl)-3,6,9,12,15,18,21,24,27,30,33-undecaoxahexatriacontan-36-amide], the “% of Payload Release in 24 Hours Under Cleavage Conditions” value is given as “+ (‘+’ indicates 5-25% release)”.

Regarding `CC[C@@]1(O)C(=O)OCc2c1cc1n(c2=O)Cc2c-1nc1cc(F)c(C)c3c1c2[C@@H](NC(=O)OCc1ccc(NC(=O)[C@H](CCCNC(N)=O)NC(=O)[C@@H](NC(=O)CCOCCOCCOCCOCCOCCOCCOCCOCCOCCOCCOCCN=[N+]=[N-])C(C)C)cc1)CC3` [Example 11, 4-((38S,41S)-1-azido-38-isopropyl-36,39-dioxo-41-(3-ureidopropyl)-3,6,9,12,15,18,21,24,27,30,33-undecaoxa-37,40-diazadotetracontan-42-amido)benzyl ((1S,9S)-9-ethyl-5-fluoro-9-hydroxy-4-methyl-10,13-dioxo-2,3,9,10,13,15-hexahydro-1H,12H-benzo[de]pyrano[3′,4′:6,7]indolizino[1,2-b]quinolin-1-yl)carbamate], the “% of Payload Release in 24 Hours Under Cleavage Conditions” value is reported as “+++ (‘+++’ indicates 51-75% release)”.

Turning to `CCc1c2c(nc3ccc(OC(C(=O)OC)c4ccc(NC(=O)[C@H](CCCNC(N)=O)NC(=O)[C@@H](NC(=O)CCOCCOCCOCCOCCOCCN=[N+]=[N-])C(C)C)cc4)cc13)-c1cc3c(c(=O)n1C2)COC(=O)[C@]3(O)CC` (stereo partly drawn) [Example 12, methyl 2-(4-((20S,23S)-1-azido-20-isopropyl-18,21-dioxo-23-(3-ureidopropyl)-3,6,9,12,15-pentaoxa-19,22-diazatetracosan-24-amido)phenyl)-2-(((S)-4,11-diethyl-4-hydroxy-3,14-dioxo-3,4,12,14-tetrahydro-1H-pyrano[3′,4′:6,7]indolizino[1,2-b]quinolin-9-yl)oxy)acetate], the “% of Payload Release in 24 Hours Under Cleavage Conditions” value is given as “+ (‘+’ indicates 5-25% release)”.

For the compound `CC[C@@]1(O)C(=O)OCc2c1cc1n(c2=O)Cc2c-1nc1cc(F)c(C)c3c1c2[C@@H](NC(=O)C(O)c1ccc(NC(=O)[C@H](CCCCN)NC(=O)[C@H](Cc2ccccc2)NC(=O)CCOCCOCCOCCOCCOCCOCCN=[N+]=[N-])cc1)CC3` (single isomer, unassigned) [Example 29-Peak 2], the “% of Payload Release in 24 Hours Under Cleavage Conditions” value was “++ (‘++’ indicates 26-50% release)”.

As to `CC[C@@]1(O)C(=O)OCc2c1cc1n(c2=O)Cc2c-1nc1cc(F)c(C)c3c1c2[C@@H](NCc1ccc(NC(=O)[C@H](CCCNC(N)=O)NC(=O)[C@@H](NC(=O)CCOCCOCCOCCOCCOCCOCCOCCOCCOCCN=[N+]=[N-])C(C)C)cn1)CC3` [Example 46, 1-azido-N-((S)-1-(((S)-1-((6-((((1S,9S)-9-ethyl-5-fluoro-9-hydroxy-4-methyl-10,13-dioxo-2,3,9,10,13,15-hexahydro-1H,12H-benzo[de]pyrano[3′,4′:6,7]indolizino[1,2-b]quinolin-1-yl)amino)methyl)pyridin-3-yl)amino)-1-oxo-5-ureidopentan-2-yl)amino)-3-methyl-1-oxobutan-2-yl)-3,6,9,12,15,18,21,24,27-nonaoxatriacontan-30-amide], the “% of Payload Release in 24 Hours Under Cleavage Conditions” value is “+ (‘+’ indicates 5-25% release)”.

Take `CCc1c2c(nc3ccc(OCCCNC(=O)OCCSSCCNC(=O)CCOCCOCCOCCOCCOCCOCCOCCOCCOCCN=[N+]=[N-])cc13)-c1cc3c(c(=O)n1C2)COC(=O)[C@]3(O)CC` [Example 61, 37-Azido-8-oxo-11,14,17,20,23,26,29,32,35-nonaoxa-3,4-dithia-7-azaheptatriacontyl (S)-(3-((4,11-diethyl-4-hydroxy-3,14-dioxo-3,4,12,14-tetrahydro-1H-pyrano[3′,4′:6,7]indolizino[1,2-b]quinolin-9-yl)oxy)propyl)carbamate]: the “% of Payload Release in 24 Hours Under Cleavage Conditions” value is listed as “+ (‘+’ indicates 5-25% release)”.

The series is the same for the next values; noted with them: linker-payload conjugated to nanoparticle, 37° C., @ 3 Hrs.
For the compound `CCc1c2c(nc3ccc(OCC(=O)N/N=C(/C)c4ccc(OCCOCCOCCOCCOCCOCCN=[N+]=[N-])cc4)cc13)-c1cc3c(c(=O)n1C2)COC(=O)[C@]3(O)CC` [Example 64, (S,Z)-N′-(1-(4-((17-azido-3,6,9,12,15-pentaoxaheptadecyl)oxy)phenyl)ethylidene)-2-((4,11-diethyl-4-hydroxy-3,14-dioxo-3,4,12,14-tetrahydro-1H-pyrano[3′,4′:6,7]indolizino[1,2-b]quinolin-9-yl)oxy)acetohydrazide], the “% of Payload Release Under Cleavage Conditions” value is given as “+++ @ 3 Hrs (‘+++’ indicates 51-75% release)”.
